For the experiment, the target named is T1, human NPY2 receptor (human, UniProt P49146 1-381).
T1 construct: whole, on cells; also called hNPY2-R; hNPY2R
T1 sequence (looked up): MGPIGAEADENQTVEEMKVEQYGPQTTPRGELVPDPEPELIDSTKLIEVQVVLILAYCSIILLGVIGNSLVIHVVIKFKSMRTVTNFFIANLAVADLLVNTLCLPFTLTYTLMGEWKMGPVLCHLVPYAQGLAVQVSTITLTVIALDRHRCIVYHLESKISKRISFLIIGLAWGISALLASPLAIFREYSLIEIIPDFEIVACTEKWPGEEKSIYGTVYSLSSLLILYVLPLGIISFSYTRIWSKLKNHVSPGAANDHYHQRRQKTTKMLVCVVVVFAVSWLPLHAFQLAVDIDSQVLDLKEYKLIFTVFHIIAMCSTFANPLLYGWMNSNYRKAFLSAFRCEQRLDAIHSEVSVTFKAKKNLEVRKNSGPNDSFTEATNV
In words: RLB: displacement of 125I-PYY(1-36) from hNPY2R membranes. (Loss of bound radioactivity is the signal in a displacement assay; it reports binding, not function.)

*1 amine or outer side, *2 acyl side, *3 side chain or, on linkers, in order; H or OH if unused. Side-chain parts run from the residue outwards. The star is where a group is joined. C18 diacid = O=C(O)CCCCCCCCCCCCCCCCC(=O)*; γGlu = O=C(O)[C@H](CCC(=O)[*:2])N[*:1]; Isovaleryl = CC(C)CC(=O)*; Ahx = NCCCCCC(=O)O

These results are taken from US20260015399A1 (Boehringer Ingelheim, published 2026).

The term Ki denotes a measure of affinity in units of concentration, obtained from inhibition or displacement. Low values mean a stronger hold on the target, high ones a looser hold on the target.

B1: Compound 30 (peptide)
peptide: Isovaleryl-APEK([Ahx-γGlu-C18 diacid])PPADATPEELQRYYVSLRHYYNWLTRQRY-NH2
SMILES: CC(C)CC(=O)N[C@@H](C)C(=O)N1CCC[C@H]1C(=O)N[C@@H](CCC(=O)O)C(=O)N[C@@H](CCCCNC(=O)CCCCCNC(=O)CC[C@H](NC(=O)CCCCCCCCCCCCCCCCC(=O)O)C(=O)O)C(=O)N1CCC[C@H]1C(=O)N1CCC[C@H]1C(=O)N[C@@H](C)C(=O)N[C@@H](CC(=O)O)C(=O)N[C@@H](C)C(=O)N[C@H](C(=O)N1CCC[C@H]1C(=O)N[C@@H](CCC(=O)O)C(=O)N[C@@H](CCC(=O)O)C(=O)N[C@@H](CC(C)C)C(=O)N[C@@H](CCC(N)=O)C(=O)N[C@@H](CCCNC(=N)N)C(=O)N[C@@H](Cc1ccc(O)cc1)C(=O)N[C@@H](Cc1ccc(O)cc1)C(=O)N[C@H](C(=O)N[C@@H](CO)C(=O)N[C@@H](CC(C)C)C(=O)N[C@@H](CCCNC(=N)N)C(=O)N[C@@H](Cc1c[nH]cn1)C(=O)N[C@@H](Cc1ccc(O)cc1)C(=O)N[C@@H](Cc1ccc(O)cc1)C(=O)N[C@@H](CC(N)=O)C(=O)N[C@@H](Cc1c[nH]c2ccccc12)C(=O)N[C@@H](CC(C)C)C(=O)N[C@H](C(=O)N[C@@H](CCCNC(=N)N)C(=O)N[C@@H](CCC(N)=O)C(=O)N[C@@H](CCCNC(=N)N)C(=O)N[C@@H](Cc1ccc(O)cc1)C(N)=O)[C@@H](C)O)C(C)C)[C@@H](C)O
For the molecule B1, the affinity, expressed as Ki, was 0.3 nM.

B2: Compound 34 (peptide)
peptide: Isovaleryl-APEK([Ahx-γGlu-C18 diacid])PEEDASAEELQQYYVSLRHYYNWLTRQRY-NH2
SMILES: CC(C)CC(=O)N[C@@H](C)C(=O)N1CCC[C@H]1C(=O)N[C@@H](CCC(=O)O)C(=O)N[C@@H](CCCCNC(=O)CCCCCNC(=O)CC[C@H](NC(=O)CCCCCCCCCCCCCCCCC(=O)O)C(=O)O)C(=O)N1CCC[C@H]1C(=O)N[C@@H](CCC(=O)O)C(=O)N[C@@H](CCC(=O)O)C(=O)N[C@@H](CC(=O)O)C(=O)N[C@@H](C)C(=O)N[C@@H](CO)C(=O)N[C@@H](C)C(=O)N[C@@H](CCC(=O)O)C(=O)N[C@@H](CCC(=O)O)C(=O)N[C@@H](CC(C)C)C(=O)N[C@@H](CCC(N)=O)C(=O)N[C@@H](CCC(N)=O)C(=O)N[C@@H](Cc1ccc(O)cc1)C(=O)N[C@@H](Cc1ccc(O)cc1)C(=O)N[C@H](C(=O)N[C@@H](CO)C(=O)N[C@@H](CC(C)C)C(=O)N[C@@H](CCCNC(=N)N)C(=O)N[C@@H](Cc1c[nH]cn1)C(=O)N[C@@H](Cc1ccc(O)cc1)C(=O)N[C@@H](Cc1ccc(O)cc1)C(=O)N[C@@H](CC(N)=O)C(=O)N[C@@H](Cc1c[nH]c2ccccc12)C(=O)N[C@@H](CC(C)C)C(=O)N[C@H](C(=O)N[C@@H](CCCNC(=N)N)C(=O)N[C@@H](CCC(N)=O)C(=O)N[C@@H](CCCNC(=N)N)C(=O)N[C@@H](Cc1ccc(O)cc1)C(N)=O)[C@@H](C)O)C(C)C
In the case of B2, the inhibition constant Ki came to 3.53 nM.

B3: Compound 32 (peptide)
peptide: Isovaleryl-APAK([Ahx-γGlu-C18 diacid])PEEDASPEELQRYYVSLRHQYNWLTRQRY-NH2
SMILES: CC(C)CC(=O)N[C@@H](C)C(=O)N1CCC[C@H]1C(=O)N[C@@H](C)C(=O)N[C@@H](CCCCNC(=O)CCCCCNC(=O)CC[C@H](NC(=O)CCCCCCCCCCCCCCCCC(=O)O)C(=O)O)C(=O)N1CCC[C@H]1C(=O)N[C@@H](CCC(=O)O)C(=O)N[C@@H](CCC(=O)O)C(=O)N[C@@H](CC(=O)O)C(=O)N[C@@H](C)C(=O)N[C@@H](CO)C(=O)N1CCC[C@H]1C(=O)N[C@@H](CCC(=O)O)C(=O)N[C@@H](CCC(=O)O)C(=O)N[C@@H](CC(C)C)C(=O)N[C@@H](CCC(N)=O)C(=O)N[C@@H](CCCNC(=N)N)C(=O)N[C@@H](Cc1ccc(O)cc1)C(=O)N[C@@H](Cc1ccc(O)cc1)C(=O)N[C@H](C(=O)N[C@@H](CO)C(=O)N[C@@H](CC(C)C)C(=O)N[C@@H](CCCNC(=N)N)C(=O)N[C@@H](Cc1c[nH]cn1)C(=O)N[C@@H](CCC(N)=O)C(=O)N[C@@H](Cc1ccc(O)cc1)C(=O)N[C@@H](CC(N)=O)C(=O)N[C@@H](Cc1c[nH]c2ccccc12)C(=O)N[C@@H](CC(C)C)C(=O)N[C@H](C(=O)N[C@@H](CCCNC(=N)N)C(=O)N[C@@H](CCC(N)=O)C(=O)N[C@@H](CCCNC(=N)N)C(=O)N[C@@H](Cc1ccc(O)cc1)C(N)=O)[C@@H](C)O)C(C)C
B3 came in with an inhibition constant (Ki) of 13.6 nM. Compared with the last molecule, the Ki is about 3.9-fold higher.

B4: Compound 31 (peptide)
peptide: Isovaleryl-APEK([Ahx-γGlu-C18 diacid])PEEDATPEELQPYYVSLRHYYNWLTRQRY-NH2
SMILES: CC(C)CC(=O)N[C@@H](C)C(=O)N1CCC[C@H]1C(=O)N[C@@H](CCC(=O)O)C(=O)N[C@@H](CCCCNC(=O)CCCCCNC(=O)CC[C@H](NC(=O)CCCCCCCCCCCCCCCCC(=O)O)C(=O)O)C(=O)N1CCC[C@H]1C(=O)N[C@@H](CCC(=O)O)C(=O)N[C@@H](CCC(=O)O)C(=O)N[C@@H](CC(=O)O)C(=O)N[C@@H](C)C(=O)N[C@H](C(=O)N1CCC[C@H]1C(=O)N[C@@H](CCC(=O)O)C(=O)N[C@@H](CCC(=O)O)C(=O)N[C@@H](CC(C)C)C(=O)N[C@@H](CCC(N)=O)C(=O)N1CCC[C@H]1C(=O)N[C@@H](Cc1ccc(O)cc1)C(=O)N[C@@H](Cc1ccc(O)cc1)C(=O)N[C@H](C(=O)N[C@@H](CO)C(=O)N[C@@H](CC(C)C)C(=O)N[C@@H](CCCNC(=N)N)C(=O)N[C@@H](Cc1c[nH]cn1)C(=O)N[C@@H](Cc1ccc(O)cc1)C(=O)N[C@@H](Cc1ccc(O)cc1)C(=O)N[C@@H](CC(N)=O)C(=O)N[C@@H](Cc1c[nH]c2ccccc12)C(=O)N[C@@H](CC(C)C)C(=O)N[C@H](C(=O)N[C@@H](CCCNC(=N)N)C(=O)N[C@@H](CCC(N)=O)C(=O)N[C@@H](CCCNC(=N)N)C(=O)N[C@@H](Cc1ccc(O)cc1)C(N)=O)[C@@H](C)O)C(C)C)[C@@H](C)O
Take B4: affinity was put at a Ki of 34.7 nM. Against the preceding molecule, the Ki is about 2.6-fold higher.

B5: Compound 35 (peptide)
peptide: Isovaleryl-APAK([Ahx-γGlu-C18 diacid])PEEAATPEELQRYYVSLRHYYNWLTRQRY-NH2
SMILES: CC(C)CC(=O)N[C@@H](C)C(=O)N1CCC[C@H]1C(=O)N[C@@H](C)C(=O)N[C@@H](CCCCNC(=O)CCCCCNC(=O)CC[C@H](NC(=O)CCCCCCCCCCCCCCCCC(=O)O)C(=O)O)C(=O)N1CCC[C@H]1C(=O)N[C@@H](CCC(=O)O)C(=O)N[C@@H](CCC(=O)O)C(=O)N[C@@H](C)C(=O)N[C@@H](C)C(=O)N[C@H](C(=O)N1CCC[C@H]1C(=O)N[C@@H](CCC(=O)O)C(=O)N[C@@H](CCC(=O)O)C(=O)N[C@@H](CC(C)C)C(=O)N[C@@H](CCC(N)=O)C(=O)N[C@@H](CCCNC(=N)N)C(=O)N[C@@H](Cc1ccc(O)cc1)C(=O)N[C@@H](Cc1ccc(O)cc1)C(=O)N[C@H](C(=O)N[C@@H](CO)C(=O)N[C@@H](CC(C)C)C(=O)N[C@@H](CCCNC(=N)N)C(=O)N[C@@H](Cc1c[nH]cn1)C(=O)N[C@@H](Cc1ccc(O)cc1)C(=O)N[C@@H](Cc1ccc(O)cc1)C(=O)N[C@@H](CC(N)=O)C(=O)N[C@@H](Cc1c[nH]c2ccccc12)C(=O)N[C@@H](CC(C)C)C(=O)N[C@H](C(=O)N[C@@H](CCCNC(=N)N)C(=O)N[C@@H](CCC(N)=O)C(=O)N[C@@H](CCCNC(=N)N)C(=O)N[C@@H](Cc1ccc(O)cc1)C(N)=O)[C@@H](C)O)C(C)C)[C@@H](C)O
As to B5, the inhibitory constant (Ki) is 1.4 nM.

B6: Compound 33 (peptide)
peptide: Isovaleryl-APAK([Ahx-γGlu-C18 diacid])PEEDAEPEELQRYYISLRHYYNWLTRQRY-NH2
SMILES: CC[C@H](C)[C@H](NC(=O)[C@H](Cc1ccc(O)cc1)NC(=O)[C@H](Cc1ccc(O)cc1)NC(=O)[C@H](CCCNC(=N)N)NC(=O)[C@H](CCC(N)=O)NC(=O)[C@H](CC(C)C)NC(=O)[C@H](CCC(=O)O)NC(=O)[C@H](CCC(=O)O)NC(=O)[C@@H]1CCCN1C(=O)[C@H](CCC(=O)O)NC(=O)[C@H](C)NC(=O)[C@H](CC(=O)O)NC(=O)[C@H](CCC(=O)O)NC(=O)[C@H](CCC(=O)O)NC(=O)[C@@H]1CCCN1C(=O)[C@H](CCCCNC(=O)CCCCCNC(=O)CC[C@H](NC(=O)CCCCCCCCCCCCCCCCC(=O)O)C(=O)O)NC(=O)[C@H](C)NC(=O)[C@@H]1CCCN1C(=O)[C@H](C)NC(=O)CC(C)C)C(=O)N[C@@H](CO)C(=O)N[C@@H](CC(C)C)C(=O)N[C@@H](CCCNC(=N)N)C(=O)N[C@@H](Cc1c[nH]cn1)C(=O)N[C@@H](Cc1ccc(O)cc1)C(=O)N[C@@H](Cc1ccc(O)cc1)C(=O)N[C@@H](CC(N)=O)C(=O)N[C@@H](Cc1c[nH]c2ccccc12)C(=O)N[C@@H](CC(C)C)C(=O)N[C@H](C(=O)N[C@@H](CCCNC(=N)N)C(=O)N[C@@H](CCC(N)=O)C(=O)N[C@@H](CCCNC(=N)N)C(=O)N[C@@H](Cc1ccc(O)cc1)C(N)=O)[C@@H](C)O
Molecule B6 came in with a Ki of 2.53 nM.
